In article PMC6825352, “Ghd8 controls rice photoperiod sensitivity by forming a complex that interacts with Ghd7”:

Columns and labels:
[1] = molecular target: HD1 (MBP-HD1);GHD8 (His-GHD8, NF-YB) (Oryza sativa (rice);Oryza sativa (rice), UniProt Q9FDX8;Q0J7P4 1-395;1-297, |); test: EMSA; 5 mM Tris pH 7.5, 25 mM KCl, 0.5 mM DTT, 5 mM MgCl2, 2.5% glycerol, 0.05% NP-40, 50 ng/uL poly(dI-dC), room temperature 20 min, 5% polyacrylamide gel; conditions: protein: recombinant;recombinant; tags: MBP (pMAL-c2X; text says MBP 'at the down-stream');N-terminal thioredoxin-His (pET-32); copies: 1;1; label: 3'-biotin; blunt
Sequence of HD1 (MBP-HD1);GHD8 (His-GHD8, NF-YB) (Q9FDX8 whole entry, chain 1 of 2): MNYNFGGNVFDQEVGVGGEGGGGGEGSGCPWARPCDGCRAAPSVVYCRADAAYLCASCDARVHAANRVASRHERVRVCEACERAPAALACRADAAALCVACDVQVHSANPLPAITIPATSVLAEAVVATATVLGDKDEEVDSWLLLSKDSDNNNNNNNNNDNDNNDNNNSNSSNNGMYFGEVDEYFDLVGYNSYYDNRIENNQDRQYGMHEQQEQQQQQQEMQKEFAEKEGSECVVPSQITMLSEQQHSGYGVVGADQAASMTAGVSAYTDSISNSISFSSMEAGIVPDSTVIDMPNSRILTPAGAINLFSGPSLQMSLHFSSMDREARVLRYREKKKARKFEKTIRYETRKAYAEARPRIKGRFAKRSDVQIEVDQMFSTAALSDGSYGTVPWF
Sequence of HD1 (MBP-HD1);GHD8 (His-GHD8, NF-YB) (Q0J7P4 whole entry, chain 2 of 2): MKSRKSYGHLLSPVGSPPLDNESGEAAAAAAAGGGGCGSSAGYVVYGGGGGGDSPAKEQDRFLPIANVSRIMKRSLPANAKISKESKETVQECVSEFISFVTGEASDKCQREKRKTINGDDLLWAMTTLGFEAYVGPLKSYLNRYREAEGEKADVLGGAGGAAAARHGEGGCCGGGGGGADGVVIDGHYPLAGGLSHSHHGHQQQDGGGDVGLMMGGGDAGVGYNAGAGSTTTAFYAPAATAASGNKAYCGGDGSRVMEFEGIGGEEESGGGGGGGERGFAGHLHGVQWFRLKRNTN

[2] = molecular target: HD1 (MBP-HD1);GHD8 (His-GHD8, NF-YB);OsHAP5b (His-HAP5b, NF-YC) (Oryza sativa (rice);Oryza sativa …, UniProt Q9FDX8;Q0J7P4;Q655V5 1-395;1-297;1-250, ||); test: EMSA; considerably stronger signal than HD1 alone; 50x/100x unlabeled F1 competitor; 5 mM Tris pH 7.5, 25 mM KCl, 0.5 mM DTT, 5 mM MgCl2, 2.5% glycerol, 0.05% NP-40, 50 ng/uL poly(dI-dC), room temperature 20 min, 5% polyacrylamide gel; conditions: protein: recombinant;recombinant;recombinant; tags: MBP (pMAL-c2X); copies: 1;1;1; label: 3'-biotin; blunt
Sequence of HD1 (MBP-HD1);GHD8 (His-GHD8, NF-YB);OsHAP5b (His-HAP5b, NF-YC) (Q9FDX8 whole entry, chain 1 of 3): as the sequence (Q9FDX8 whole entry, chain 1 of 2) above
Sequence of HD1 (MBP-HD1);GHD8 (His-GHD8, NF-YB);OsHAP5b (His-HAP5b, NF-YC) (Q0J7P4 whole entry, chain 2 of 3): as the sequence (Q0J7P4 whole entry, chain 2 of 2) above
Sequence of HD1 (MBP-HD1);GHD8 (His-GHD8, NF-YB);OsHAP5b (His-HAP5b, NF-YC) (Q655V5 whole entry, chain 3 of 3): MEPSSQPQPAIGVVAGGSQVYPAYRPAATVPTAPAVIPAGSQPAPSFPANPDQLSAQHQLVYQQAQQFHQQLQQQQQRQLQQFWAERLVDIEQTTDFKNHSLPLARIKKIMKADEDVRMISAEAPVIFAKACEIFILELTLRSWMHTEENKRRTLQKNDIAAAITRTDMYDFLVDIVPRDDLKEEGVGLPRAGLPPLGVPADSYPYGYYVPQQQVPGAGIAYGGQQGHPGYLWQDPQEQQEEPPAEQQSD

B1: F1 (dsDNA)
DNA 1: ATCTGGTTGCAATGGGGATGGCCAATGAGGAGTCG
DNA 2: CGACTCCTCATTGGCCATCCCCATTGCAACCAGAT
- binding result [1]: binds
- binding result [2]: binds
